Test results as given in patent US20060088535.

System: ApCREB-1 (Aplysia californica)
Assay: cell_activity
Conditions: F9 cells with PKA; 2.13 without PKA; 1.64 with ApCREB-2 plus PKA

Q: For “TGACGTCA (double strand) [single CRE palindrome in pGL3-CRE reporter]”, which activity (fold activation) is on record?
A: The activity (fold activation) was 10.5.
